Data reported in the DeepSol protein solubility set.

experiment: soluble on expression in E. coli; label from the status in PepcDB or PDB records

Sequence	soluble on expression in E. coli
MSLGVLFSPPPASAYDGVEFLEFAVDEAVGARLGNWLKRLGFAEAGKHRSKEVQLLRQGDINIVLNAEPYSFGHNFFEAHGPSLCATALRVKDQQAALKRATAFRGQPFRGLVGPNECEVPAVRAPDGSLLYLVEQGTAGHTLYDTDFSLDNNATATGGLRRIDHMALALPAESLDSWVLFYKSLFDFAADDEVVLPDPYGLVKSRALRSQCGTLRLPLNISENRNTAIAHALSSYRGSGVHHIAFDCDDIFREVARAKLAGVPLLEIPLNYYDDLAARFDFDDEFLSELAYYNVLYDRDAQGGELFHVYTEPFEERFFFEIIQRKAGYAGYGAANVAVRLAAMAKARSGAARKEGHHHHHH	soluble
GSHMFYAVRRGRKTGVFLTWNECRAQVDRFPAARFKKFATEDEAWAFVRKSAS	soluble
MAHHHHHHMDTNDYENLRFYNYIPVNKELKKSCIPCPDTEDYEAKLNKEFDEELTKVFQGNILDQINAKDINADLKRDLKKKLDILSKKTDKAVVQLIKQKINENKNKENITNTNDDEKEKETMTLNFDKKGDKNFGHVLYKTLDKLDVMDDESD	soluble
MSLGQHFLKDLKVAQDIADTVDTFPELPVLEVGPGMGVLTQFLVKKDRLVKVVEVDYESVAYLREAYPSLEDHIIEDDFLKMNLHRLFDGKPFVLTGNYPYNISSQIFFKMLENKDIIPCCTGMIQKEVAERIAAGPGSKTYGILSVLIQAWYKVEYLFTVSEHVFNPPPKVKSAVIRMTRNDTKELGCDEKLFKQVVKTTFNQRRKTLRNSIKPILGKDCPLTEDALFNKRPEQLSVEEFISLTNQVEEALKTATASEGHHHHHH	soluble
MAQSKLYPVVMAGGSGSRLWPLSRVLYPKQFLCLKGDLTMLQTTICRLNGVECESPVVICNEQHRFIVAEQLRQLNKLTENIILEPAGRNTAPAIALAALAAKRHSPENDPLMLVLAADHVIADEDAFRAAVRNAMPYAEAGKLVTFGIVPDLPETGYGYIRRGEVSAGEQDTVAFEVAQFVEKPNLETAQAYVASGEYYWNSGMFLFRAGRYLEELKKYRPDILDACEKAMSAVDPDLDFIRVDEEAFLACPEESVDYAVMERTADAVVVPMDAGWSDVGSWSSLWEISAHTAEGNVCHGDVINHKTENSYVYAESGLVTTVGVKDLVVVQTKDAVLIADRNAVQDVKKVVEQIKADGRHEHRVHREVYRPWGKYDSIDAGDRYQVKRITVKPGEGLSVQMHHHRAEHWVVVAGTAKVTIDGDIKLLGENESIYIPLGATHCLENPGKIPLDLIEVRSGSYLEEDDVVRFADRYGRV	soluble
MQNLRTDVLIIGGGEAGLVAGCRALTMGQKVILVEKNGYLGGATILNGSNVVGTGSDVAAQIFDNNHDTPEMLAQDVARESLETNYPALTDLMVHNIGPAIDFISKFADLHYQKAQTQTPEHSINRQIELPSASSYEFIQKVSKAFAAAGGQIMLDTRVEKLMLDNDKKLRGVIAAQKDQTVNIKARSVVLAAGGHGANQKMRGTESEGIDYYGPMTSTGDAYQFNGDLDLQTHDLGWYKLYPHGVEVEPGVAKLTTYASKQATDMGAIYVNSKGDRIVNESNVYTTFRNAILKQADKVAYLVMDERTWKKVYDLLILHDFTPEEIKSFFENKGKRPVFVKGSLESAAEQAGIVVDELVQTVKNYQGYVQDGHDHDFGRDPKYLHQFEGETFYIIEQRDRFATTLGGYSVDADNLQLVTTKNAPVANYFGAGEIIGGANGHDSMPSMMNTWGISSGYVAGAAASENAQRQATAGAAALEHHHHHH	soluble
MAHHHHHHMSMNNPAPSPQAPMAAPLDASATVHPRENLAVSAPPGATGAGHNKRLPEELAEFLHTQPPRMETINERKQLFCTRLYMTPPRVLATEGAERRGETLGASLTATGTTSNDSVVGAPLLRSPPPAVLPAAGAPASLKIAKTVPFSEEEHLAWLCAPASPTESRTSAAVPPEAAASSRGLARTERISHAQSEGVRRHEPDRRAVGATATQQPHLSHGASDAHGNDAPARLQGLVAASMATAPNPATPLALQHGEISYKSSFSVLTSWDALMVAPPLLRTTPRMPSLLTQDVENIGTAAMHLNRSTTVTHACASDDVARIPSTGSRAELLIGTSPATEKGEARQEEARADAVLQQPVFPSSCCTRSPTTVPSRLKYDGHGLSPEDSLHQVEEDSARTFVKHFTNGLVFVDPPWFICPVLLDNCEHPYYMTWLDELEVGSVEEAVAETKAKLLTDA	not soluble
MLEARDLYCERDERTLFRGLSFTVDAGEWVQVTGGNGAGKTTLLRLLTGLARPDGGEVYWQGEPLRRVRDSFHRSLLWIGHQPGIKTRLTARENLHFFHPGDGARLPEALAQAGLAGFEDVPVAQLSAGQQRRVALARLWLTRAALWVLDEPFTAIDVNGVARLTRRMAAHTAQGGMVILTTHQPLPGAADTVRRLALTGGGAGL	not soluble
MGSDKIHHHHHHMLAASMVDLARRLGVSSVHVTFPGGDEYEGLGEAGYLQRLGSQYHWTNPGYQSFDDFLGQLSSRKRKQIRKERDAVARTGIRLSTLVGGDVKARHWDVFHAFYQAVVDRKWGRAYVSRAFFEELSASALADSVVLVWAEDGGEPLGAAFNMLGGDTLYGRTWGGGRHVDFLHFEACYYRALDFAIAQGLARVEAGAQGEHKVSRGYLPNATYSAHWIADSRLAEPVARYLVHERAMVTEDMASQTEEGPFRKG	not soluble
MATANEHLVAWLRDAHAMEEQAITMLTSQSSRLENYPELKTRIDRHLQETKDQAAMLERCLERLDGGTSSIKDISGKIVAFGQGLSGLFVSDEVVKGTLASYTFEHMEIASYRILIAAAEQAGDQETKRVCESILQQEIAMAEWLAQNAGEITRKFLERDQRDVTAKH	not soluble
MSLKTLATIGDNCVDIYPQLNKAFSGGNAVNVAVYCTRYGIQPGCITWVGDDDYGTKLKQDLARMGVDISHVHTKHGVTAQTQVELHDNDRVFGDYTEGVMADFALSEEDYAWLAQYDIVHAAIWGHAEDAFPQLHAAGKLTAFDFSDKWDSPLWQTLVPHLDFAFASAPQEDEALRLKMKAIVARGAGTVIVTLGENGSIAWDGAQFWRQAPEPVTVIDTMGAGDSFIAGFLCGWSAGMTLPQAMAQGTACAAKTIQYHGAEGHHHHHH	soluble
GPASQHFLSTSVQGPWERAISPNKVPYYINHETQTTCWDHPKMTELYQSLADLNNVRFSAYRTAMKLRRLQKALCLDLLSLSAACDALDQHNLKQNDQPMDILQIINCLTTIYDRLEQEHNNLVNVPLCVDMCLNWLLNVYDTGRTGRIRVLSFKTGIISLCKAHLEDKYRYLFKQVASSTGFCDQRRLGLLLHDSIQIPRQLGEVASFGGSNIEPSVRSCFQFANNKPEIEAALFLDWMRLEPQSMVWLPVLHRVAAAET	soluble
MPNASQVYRSTRSSSPKTISFEEAIIQGLATDGGLFIPPTIPQVDQATLFNDWSKLSFQDLAFAIMRLYIAQEEIPDADLKDLIKRSYSTFRSDEVTPLVQNVTGDKENLHILELFHGPTYAFKDVALQFVGNLFEYFLQRTNANLPEGEKKQITVVGATSGDTGSAAIYGLRGKKDVSVFILYPTGRISPIQEEQMTTVPDENVQTLSVTGTFDNCQDIVKAIFGDKEFNSKHNVGAVNSINWARILAQMTYYFYSFFQATNGKDSKKVKFVVPSGNFGDILAGYFAKKMGLPIEKLAIATNENDILDRFLKSGLYERSDKVAATLSPAMDILISSNFERLLWYLAREYLANGDDLKAGEIVNNWFQELKTNGKFQVDKSIIEGASKDFTSERVSNEETSETIKKIYESSVNPKHYILDPHTAVGVCATERLIAKDNDKSIQYISLSTAHPAKFADAVNNALSGFSNYSFEKDVLPEELKKLSTLKKKLKFIERADVELVKNAIEEELAKMKL	soluble
TVLENGSWLIDGDTPVNKLKYVLSVDSFPGEEQGYYLTIAGLIMYILQRIPKTGDHMEFNGLRYEVVDMDGIRIDKVMVTKVPEISKD	not soluble
MSTEKWRTGLQIQQLHTPTDNVDRSAMKKISSMFSALQEKFQRAKAGAPTPAAVAPPAGRESHCGLRFFEYLLVVSLRKRSSGVGYEPQVTYQFPKREVMGRLQREQEEKSMKAAHLFCFPEGVHWAPVTEYSSETFSFVLTEVDGSRRNGYCRRLLPAGKGARLPEAYCIISHVACFGLFSKIFDEVEKRRQISTAMIYPFMQSLREAPLPSPGSTVSISSFIPDAGTQIIRLTRPADSWLEHVDFTALFSRLNDEELLLVFTAAVLERRIIFISEELSTLSQVLHAVAALLYPFVWQHTFISIVPSVLIDVCEAPTPYLLGVQKSMMGLITDHSDVMIVDLSTGAPTKFITRIGDEESLLPLKLKEELLSGLSARTHHASTEQLNRLVSEAFLSVFVKTVGHFSEHIKRGGKPRQFQKKSFLKAVENKTYSSFVKLFIQTQMFDLFIQEEETQSNPNGFFHRKVKEHRDRMKQEKAKAGWVRGVVI	soluble
TDAQKRRRAVGHALAYAGYAEIIPSPFMDPEVFDVWGLAADDERRKTVSVLNPLEAERNVLSTSLLPSMLDAVKRNVARGHNDFSLFGLQQVAFEHGSGVSPMPSVASRPEESVVAELVDSLPNQPLHVATVGTGNIEFEGPWGKGRAYTFADAIESARAVARAAGVTLELANADALPWHPGRCAALLIDGTPVGYAGELHPQILEKAGLPARTCAMELDLSALP	not soluble
MSLDKNSKSFGEANERIGNAIHHVCLNASDAKFIKSNIQESYQSWANVLYDRVFLNWGLCDKKIYRELSSLNFDFSTVGFFPHVYGQSLLFYLIRPLIKIHFFNKRLLDVGCGNGVGLKISSELLKTRYALGIDLVSKLVTNSNNSFYIEDKINYMQADAENMAIANESFDIVTNLESSHLYPQIEHFFSEVERVLAPNGFFCYADVHFDVKQQAQRLEAFVKTKKNLRIIEKHNITKMVQASIYQRLIVNEKGFYQLAQYLLGPDKIHYTSELANVASSMGLMFLPWWRIRFKNPALQALGKFARRCKHWNKKYYFYYLIQKIDSEGHHHHHH	not soluble
VTDVLLCVGNSMMGDDGAGPLLAEKCAAAPKGNWVVIDGGSAPENDIVAIRELRPTRLLIVDATDMGLNPGEIRIIDPDDIAEMFMMTTHNMPLNYLIDQLKEDIGEVIFLGIQPDIVGFYYPMTQPIKDAVETVYQRLEGWEGNGGFAQLAVEEE	soluble
AMKNWKTSAESILTTGPVVPVIVVKKLEHAVPMAKALVAGGVRVLNVTLRTECAVDAIRAIAKEVPEAIVGAGTVLNPQQLAEVTEAGAQFAISPGLTEPLLKAATEGTIPLIPGISTVSELMLGMDYGLKEFKFFPAEANGGVKALQAIAGPFSQVRFCPTGGISPANYRDYLALKSVLCIGGSWLVPADALEAGDYDRITKLAREAVEGAKL	soluble
SNAMEHKIVHVGDIPVANDKPFTLFAGMNVLESRDLAMQICEHYVKVTDKLGIPYVFKASFDKANRSSVHSYRGPGLEEGMKIFQELKETFGVKIITDVHTEAQAQPVADVVDVIQLPAFLARQTDLVEAMAKTGAVINVKKPQFMSPGQVGNIVEKFAECGNDKVILCERGSCHGYDNLVVDMLGFGVMKQASNGSPIIFDVTHSLQMRDPSGAASGGRREQTVELAKAGLATGIAGLFIEAHPNPDKARCDGPSALPLDKLEPFLAQMKALDDLIKSFAHIDIR	soluble
MLPDKGWLVEARRVPSPHYDCRPDDEKPSLLVVHNISLPPGEFGGPWIDALFTGTIDPDAHPFFAEIAHLRVSAHCLIRRDGEIVQYVPFDKRAWHAGVSNYQGRERCNDFSIGIELEGTDTLAYTDAQYQQLAAVTRTLIASYPAIADNMTGHCNITPDRKTDPGPAFDWPRFRALVALSSHKEMT	not soluble
